From publication PMC9347012, “Regulation of tomato fruit elongation by transcription factor BZR1.7 through promotion of SUN gene expression” come the findings set out here.

In this data set the target is BZR1.7 (His-6-MBP-BZR1.7) (Solanum lycopersicum, UniProt A0A3Q7IIT4 1-180). Put plainly: EMSA; EMSA: 20 uL binding reaction buffer (composition not given), 40 min at 4 °C in the dark; 6% native PAGE, 0.5x TBE, 4 °C; pH and salt not given. The settings on record: protein: recombinant; tags: His6-MBP, N-terminal; label: 5'-FAM (on one strand; partner unlabeled); blunt.
BZR1.7 (His-6-MBP-BZR1.7), sequence (A0A3Q7IIT4 entry or part of it): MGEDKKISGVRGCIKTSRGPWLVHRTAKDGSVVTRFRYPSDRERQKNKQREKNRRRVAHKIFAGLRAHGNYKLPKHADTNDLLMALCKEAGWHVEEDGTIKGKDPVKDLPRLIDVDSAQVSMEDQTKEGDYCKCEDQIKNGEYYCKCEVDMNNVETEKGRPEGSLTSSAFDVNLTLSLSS

B1: E-box-wt probe (SUN promoter, 42 bp) (dsDNA)
DNA 1: TGTCCATCAAGACCGAAACAAATGAGAAAAATCACCTAGTGT
DNA 2: ACACTAGGTGATTTTTCTCATTTGTTTCGGTCTTGATGGACA
In the case of B1, the binding result was “binds”.

B2: E-box-mt probe (CAAATG to TCGCGA) (dsDNA)
DNA 1: TGTCCATCAAGACCGAAATCGCGAAGAAAAATCACCTAGTGT
DNA 2: ACACTAGGTGATTTTTCTTCGCGATTTCGGTCTTGATGGACA
As to B2, the binding result is listed as “no binding”.
